Results: publication PMC5987771

Target: T1, Pot1pC (C-terminal domain of the Pot1 DNA-binding domain) (Schizosaccharomyces pombe, UniProt O13988 198-339, V199D)
T1 sequence: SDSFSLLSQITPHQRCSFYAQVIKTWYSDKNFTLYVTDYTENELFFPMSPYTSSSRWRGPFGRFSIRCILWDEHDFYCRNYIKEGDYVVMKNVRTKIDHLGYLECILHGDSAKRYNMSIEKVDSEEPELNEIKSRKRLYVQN
Assay: X-ray crystallography

B1: 1R (mixed)
DNA: GGTTACGGT
modifications: ribose at 1 (rG1), rest DNA
binding result: binds
